Among the data in the supplement of paper PMC10567573 are protein stability index values, retold here.

Sequences and labels used below:
B1: ESRRG (parent)
chain: YSCPATNECEITKRRRKSCQACRF
B2: RIPK4 (parent)
chain: AAWQGHLPIVKLLAKQPGVSVNAQ
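Note: lentivirally expressed fusions sorted by FACS into six bins by GFP to DsRed ratio, PSI derived from sequencing read proportions per bin multiplied by bin number.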

Variants of B1 are the subject of one data set. The experiment in a line: protein stability index of a GFP-peptide fusion (GPS, HEK-293T) (PSI 1-6); higher = more stable. The following applies: c terminus: a fixed tail appended.
As for YDCPATNECEITKRRRKSCQACRF [S2D], the protein stability index stood at 3.87.

As for YECPATNECEITKRRRKSCQACRF [S2E], the protein stability index came out at 4.1.

Regarding YKCPATNECEITKRRRKSCQACRF [S2K], the protein stability index worked out at 3.15.

Turning to YGCPATNECEITKRRRKSCQACRF [S2G], the protein stability index is 3.58.

Turning to YNCPATNECEITKRRRKSCQACRF [S2N], the protein stability index stood at 3.4.

As to YHCPATNECEITKRRRKSCQACRF [S2H], the protein stability index stood at 2.47.

As to YLCPATNECEITKRRRKSCQACRF [S2L], the protein stability index amounted to 2.96.

Turning to YVCPATNECEITKRRRKSCQACRF [S2V], the protein stability index was determined as 2.23.

Regarding YTCPATNECEITKRRRKSCQACRF [S2T], the protein stability index turned out to be 2.85.

As to YWCPATNECEITKRRRKSCQACRF [S2W], the protein stability index came out at 2.33.

As for YCCPATNECEITKRRRKSCQACRF [S2C], the protein stability index was 2.52.

In the case of YPCPATNECEITKRRRKSCQACRF [S2P], the protein stability index is 2.98.

For YQCPATNECEITKRRRKSCQACRF [S2Q], the protein stability index turned out to be 2.55.

As for YMCPATNECEITKRRRKSCQACRF [S2M], the protein stability index was determined as 3.27.

Regarding YICPATNECEITKRRRKSCQACRF [S2I], the protein stability index stood at 1.92.

For YACPATNECEITKRRRKSCQACRF [S2A], the protein stability index was 2.1.

For the variant YSCPATNFCEITKRRRKSCQACRF [E8F], the protein stability index turned out to be 1.91.

In the case of YSCPATNMCEITKRRRKSCQACRF [E8M], the protein stability index amounted to 2.88.

For YSCPATNWCEITKRRRKSCQACRF [E8W], the protein stability index came to 1.96.

Take YSCPATNRCEITKRRRKSCQACRF [E8R]: the protein stability index came out at 3.13.

Regarding YSCPATNQCEITKRRRKSCQACRF [E8Q], the protein stability index worked out at 3.52.

For the variant YSCPATNLCEITKRRRKSCQACRF [E8L], the protein stability index worked out at 3.02.

As for YSCPATNACEITKRRRKSCQACRF [E8A], the protein stability index was 3.46.

Turning to YSCPATNNCEITKRRRKSCQACRF [E8N], the protein stability index turned out to be 3.29.

As for YSCPATNICEITKRRRKSCQACRF [E8I], the protein stability index was found to be 2.87.

For the variant YSCPATNDCEITKRRRKSCQACRF [E8D], the protein stability index came to 2.92.

Take YSCPATNPCEITKRRRKSCQACRF [E8P]: the protein stability index is 3.26.

Regarding YSCPATNCCEITKRRRKSCQACRF [E8C], the protein stability index was 3.12.

Turning to YSCPATNGCEITKRRRKSCQACRF [E8G], the protein stability index was 3.54.

On to YSCPATNHCEITKRRRKSCQACRF [E8H], for which the protein stability index was determined as 3.14.

On to YSCPATNKCEITKRRRKSCQACRF [E8K], for which the protein stability index is 3.14.

As for YSCPATNTCEITKRRRKSCQACRF [E8T], the protein stability index amounted to 3.25.

Turning to YSCPATNYCEITKRRRKSCQACRF [E8Y], the protein stability index was determined as 2.32.

For YSCPATNSCEITKRRRKSCQACRF [E8S], the protein stability index turned out to be 2.97.

Regarding YSCPATNVCEITKRRRKSCQACRF [E8V], the protein stability index worked out at 3.05.

Turning to YSCPITNECEITKRRRKSCQACRF [A5I], the protein stability index was found to be 3.01.

Turning to YSCPSTNECEITKRRRKSCQACRF [A5S], the protein stability index came out at 3.33.

As to YSCPLTNECEITKRRRKSCQACRF [A5L], the protein stability index was 3.2.

On to YSCPFTNECEITKRRRKSCQACRF [A5F], for which the protein stability index came out at 2.79.

For the variant YSCPGTNECEITKRRRKSCQACRF [A5G], the protein stability index amounted to 3.58.

Consider YSCPNTNECEITKRRRKSCQACRF [A5N], for which the protein stability index was 3.27.

For YSCPQTNECEITKRRRKSCQACRF [A5Q], the protein stability index was determined as 3.26.

YSCPHTNECEITKRRRKSCQACRF [A5H]: the protein stability index was 3.73.

For YSCPCTNECEITKRRRKSCQACRF [A5C], the protein stability index is 3.43.

Take YSCPKTNECEITKRRRKSCQACRF [A5K]: the protein stability index is 3.36.

On to YSCPMTNECEITKRRRKSCQACRF [A5M], for which the protein stability index turned out to be 3.

For the variant YSCPYTNECEITKRRRKSCQACRF [A5Y], the protein stability index came to 3.05.

For the variant YSCPVTNECEITKRRRKSCQACRF [A5V], the protein stability index came to 3.03.

In the case of YSCPPTNECEITKRRRKSCQACRF [A5P], the protein stability index is 3.12.

In the case of YSCPDTNECEITKRRRKSCQACRF [A5D], the protein stability index was 3.38.

Regarding YSCPRTNECEITKRRRKSCQACRF [A5R], the protein stability index was 2.89.

As to YSCPTTNECEITKRRRKSCQACRF [A5T], the protein stability index was found to be 2.78.

As for YSCPETNECEITKRRRKSCQACRF [A5E], the protein stability index stood at 3.73.

On to YSCPWTNECEITKRRRKSCQACRF [A5W], for which the protein stability index is 1.51.

Take YSMPATNECEITKRRRKSCQACRF [C3M]: the protein stability index amounted to 3.55.

For the variant YSRPATNECEITKRRRKSCQACRF [C3R], the protein stability index is 3.05.

In the case of YSPPATNECEITKRRRKSCQACRF [C3P], the protein stability index amounted to 3.58.

As to YSFPATNECEITKRRRKSCQACRF [C3F], the protein stability index was found to be 3.12.

With YSLPATNECEITKRRRKSCQACRF [C3L], the protein stability index amounted to 3.53.

For the variant YSEPATNECEITKRRRKSCQACRF [C3E], the protein stability index worked out at 4.09.

With YSIPATNECEITKRRRKSCQACRF [C3I], the protein stability index was 3.37.

Consider YSWPATNECEITKRRRKSCQACRF [C3W], for which the protein stability index is 2.83.

For the variant YSNPATNECEITKRRRKSCQACRF [C3N], the protein stability index was 3.79.

On to YSVPATNECEITKRRRKSCQACRF [C3V], for which the protein stability index turned out to be 4.16.

With YSDPATNECEITKRRRKSCQACRF [C3D], the protein stability index turned out to be 3.72.

As for YSSPATNECEITKRRRKSCQACRF [C3S], the protein stability index was determined as 3.56.

For the variant YSYPATNECEITKRRRKSCQACRF [C3Y], the protein stability index amounted to 3.81.

Consider YSAPATNECEITKRRRKSCQACRF [C3A], for which the protein stability index stood at 4.23.

For the variant YSKPATNECEITKRRRKSCQACRF [C3K], the protein stability index was found to be 3.83.

Consider YSGPATNECEITKRRRKSCQACRF [C3G], for which the protein stability index was 3.44.

On to YSTPATNECEITKRRRKSCQACRF [C3T], for which the protein stability index came to 3.99.

In the case of YSQPATNECEITKRRRKSCQACRF [C3Q], the protein stability index was 3.62.

For YSHPATNECEITKRRRKSCQACRF [C3H], the protein stability index came out at 2.7.

Another data set covers variants of B2. The description is as above. Conditions: c terminus: a fixed tail appended.
Take AAWQGHLPIVKLLAKQPGVSVNYQ [A23Y]: the protein stability index was 1.63.

Take AAWQGHLPIVKLLAKQPGVSVNVQ [A23V]: the protein stability index turned out to be 2.19.

With AAWQGHLPIVKLLAKQPGVSVNAK [Q24K], the protein stability index stood at 2.78.

For AAWQGHLPIVKLLAKQPGVSVNAS [Q24S], the protein stability index was 2.69.

AAWQGHLPIVKLLAKQPGVSVNAV [Q24V]: the protein stability index was 3.06.

Consider AAWQGHLPIVKLLAKQPGVSVNAR [Q24R], for which the protein stability index was 3.16.

Take AAWQGHLPIVKLLAKQPGVSVNAT [Q24T]: the protein stability index was found to be 1.93.

On to AAWQGHLPIVKLLAKQPGVSVNAG [Q24G], for which the protein stability index was found to be 1.93.

As to AAWQGHLPIVKLLAKQPGVSVNAC [Q24C], the protein stability index was found to be 2.19.

Turning to AAWQGHLPIVKLLAKQPGVSVNAW [Q24W], the protein stability index is 1.58.

As for AAWQGHLPIVKLLAKQPGVSVNAM [Q24M], the protein stability index was found to be 1.86.

On to AAWQGHLPIVKLLAKQPGVSVNAF [Q24F], for which the protein stability index amounted to 2.07.

For the variant AAWQGHLPIVKLLAKQPGVSVNAE [Q24E], the protein stability index came to 3.17.

In the case of AAWQGHLPIVKLLAKQPGVSVNAD [Q24D], the protein stability index stood at 3.29.

Turning to AAWQGHLPIVKLLAKQPGVSVNAA [Q24A], the protein stability index came out at 2.08.

AAWQGHLPIVKLLAKQPGVSVNAP [Q24P]: the protein stability index was found to be 1.89.

For AAWQGHLPIVKLLAKQPGVSVNAL [Q24L], the protein stability index worked out at 2.83.

For AAWQGHLPIVKLLAKQPGVSVNAH [Q24H], the protein stability index turned out to be 1.93.

Turning to AAWQGHLPIVKLLAKQPGVSVNAN [Q24N], the protein stability index amounted to 2.39.

In the case of AAWQGHLPIVKLLAKQPGVSVNAI [Q24I], the protein stability index was determined as 1.61.

With AAWQGHLPIVKLLAKQPGVSVNAY [Q24Y], the protein stability index was determined as 1.5.
